Results: publication PMC8646660 (2021)

Experiments:
[1] = biological target: biotinylated SARS-CoV RBD (SARS-CoV, UniProt P59594, biotin); experiment: BLI
[2] = biological target: SARS-CoV-2 S receptor-binding domain (RBD), biotinylated (SARS-CoV-2, UniProt P0DTC2 330-531); experiment: BLI

B1: scFD20 (single-chain variable fragment of FD20) (scFv, V domains shown)
VH: QVQLQQSGAEVKKPGSSVKVSCKASGGTFSSYAFSWVRQAPGQGLEWMGRIIPILGIANYAQKFQGRVTITADISTSTAYMALSSLRSEDTAVYYCAKVEVNIGMDDYYYYYGMDVWGQGTTVTVSS
VL: not shown
koff [1]: 0.00054 s⁻¹
koff [2]: 0.000664 s⁻¹
